The values that follow come from US8703913B2, “Sensor” (Medical Research Council, priority 2008, dated 2014).

The labels stand for the following.
B1: 5-IATR-ParM (WT): wild-type ParM labeled with 5-IATR (conjugate, UniProt P11904 1-320, looked up)
Plasmid segregation protein …: MLVFIDDGSTNIKLQWQESDGTIKQHISPNSFKREWAVSFGDKKVFNYTLNGEQYSFDPISPDAVVTTNIAWQYSDVNVVAVHHALLTSGLPVSEVDIVCTLPLTEYYDRNNQPNTENIERKKANFRKKITLNGGDTFTIKDVKVMPESIPAGYEVLQELDELDSLLIIDLGGTTLDISQVMGKLSGISKIYGDSSLGVSLVTSAVKDALSLARTKGSSYLADDIIIHRKDNNYLKQRINDENKISIVTEAMNEALRKLEQRVLNTLNEFSGYTHVMVIGGGAELICDAVKKHTQIRDERFFKTNNSQYDLVNGMYLIGN
modifications: 5-IATR label
B2: MIANS-ParM (I27C): ParM I27C/C287A labeled with MIANS (conjugate, UniProt P11904 1-320, looked up, variant I27C C287A)
Plasmid segregation protein …: B1 Plasmid segregation protein … with I27C, C287A
modifications: MIANS label
B3: 5-IATR-ParM (I27C) (conjugate, UniProt P11904 1-320, looked up, variant I27C)
Plasmid segregation protein …: B1 Plasmid segregation protein … with I27C
modifications: 5-IATR rhodamine label
B4: MIANS-ParM (WT): wild-type ParM labeled with MIANS (conjugate, UniProt P11904 1-320, looked up)
Plasmid segregation protein …: B1 Plasmid segregation protein …
modifications: MIANS label
B5: Cy3-ParM (I27C): ParM I27C/C287A labeled with Cy3-maleimide (conjugate, UniProt P11904 1-320, looked up, variant I27C C287A)
Plasmid segregation protein …: B1 Plasmid segregation protein … with I27C, C287A
modifications: Cy3-maleimide label
B6: 5-IATR-ParM (D63C) (conjugate, UniProt P11904 1-320, looked up, variant D63C)
Plasmid segregation protein …: B1 Plasmid segregation protein … with D63C
modifications: 5-IATR rhodamine label
B7: Cy3b-ParM (I27C): ParM I27C/C287A labeled with Cy3B-maleimide (conjugate, UniProt P11904 1-320, looked up, variant I27C C287A)
Plasmid segregation protein …: B1 Plasmid segregation protein … with I27C, C287A
modifications: Cy3B label
B8: 5-IATR-ParM (D58C) (conjugate, UniProt P11904 1-320, looked up, variant D58C)
Plasmid segregation protein …: B1 Plasmid segregation protein … with D58C
modifications: 5-IATR rhodamine label
B9: 6-IATR-ParM (WT): wild-type ParM labeled with 6-IATR (conjugate, UniProt P11904 1-320, looked up)
Plasmid segregation protein …: B1 Plasmid segregation protein …
modifications: 6-IATR label
B10: Alexa 488-ParM (I27C): ParM I27C/C287A labeled with AlexaFluor-488-maleimide (conjugate, UniProt P11904 1-320, looked up, variant I27C C287A)
Plasmid segregation protein …: B1 Plasmid segregation protein … with I27C, C287A
modifications: Alexa Fluor 488 label
B11: MIANS-ParM (S204C): ParM S204C/C287A labeled with MIANS (conjugate, UniProt P11904 1-320, looked up, variant S204C C287A)
Plasmid segregation protein …: B1 Plasmid segregation protein … with S204C, C287A
modifications: MIANS label

Where a chain is given by its changes, count along the chain named. Numbers in names are those of the source.

The assay can be described thus: Screening mutant/fluorophore combinations for a fluorescence response to ADP. The note with it: ParM mutant/fluorophore combination.
As to B1, the “Fluorescence change, ratio of the intensity in presence of 1 mM ADP to that in the absence of ADP” value (“Fluorescence change, ratio” for short) is on record as 0.74. For B2, the “Fluorescence change, ratio” value came out at 0.72. With B3, the “Fluorescence change, ratio” value was 1.3. Next, B4: 0.50; B5: 1.2. For the molecule B6, the “Fluorescence change, ratio” value stood at 0.80. Turning to B7, the “Fluorescence change, ratio” value came out at 0.83.

For B8, the “Fluorescence change, ratio” value amounted to 0.83. In the case of B9, the “Fluorescence change, ratio” value stood at 0.70.

Consider B10, for which the “Fluorescence change, ratio” value was 0.78.

As to B11, the “Fluorescence change, ratio” value is 0.91.
